Laboratory results published in patent publication US20090075921A1, “Bone/joint disease sensitivity gene and use thereof” (Riken, priority 2004, published 2009).

Tests used:
TGF-β1 = TGF-β1 (Homo sapiens, UniProt P01137); assay: Binding assay of asporin and TGF-β by pull-down assay method; conditions: S-Protein agarose precipitate, Western blotting
Method: With the pET29b-ASP13 and pET29b-ASP14 thus prepared as the templates, S-tagged human asporin D13 and D14 were prepared by performing a reaction in the presence of Transcend™ Biotin-Lysyl-tRNA using TNT Quick Coupled Transcription/Translation Systems (Promega). A reaction mixture comprising S-tagged human asporin D13 or D14 (10 μl) and TGF-β1 (0.1 μg) were mixed in buffer A (50 mM Tris (pH 7.5), 150 mM NaCl, 1% Triton X-100, complete protease inhibitor cocktail tablets (Roche)) at 4° C. for 1 hour, S-Protein agarose (Novagen, 12.5 μl) was added, and the mixture was further incubated at room temperature for 30 minutes. The precipitated resin was washed with buffer A five times, after which SDS-PAGE was performed under reducing conditions. S-tagged human asporin in the precipitate was detected by Western blotting using streptavidin-HRP (R&D Systems), and TGF-β1 was detected by Western blotting using biotinylated anti-TGF-β1 antibody (Genzyme). As a result of an examination of the binding of human asporin and TGF-β by the method described above, a band of TGF-β1 was detected in the precipitate comprising S-tagged human asporin D13 or D14 (FIG. 17).
Using the recombinant mouse asporin purified by the method described in Example 31, its capability of binding with TGF-β1 was examined by the method described in Example 22 (pull-down assay method); as a result, it was confirmed that TGF-β1 was detected in the precipitate of purified mouse asporin (FIG. 26).

NHAC = assay: Articular chondrocyte differentiation maintenance in redifferentiated NHAC; assay type: cell-based, human; conditions: 7 days, TGF-β1 40 ng/ml, asporin 20 μg/ml where added
Method: NHAC was redifferentiated by alginate beads culture for 2 weeks using a chondrocyte differentiation medium (CDM) manufactured by Cambrex Company according to the protocol attached. These redifferentiated cells were inoculated to a Lab-Tek II chamber slide (Nunc), a DMEM/F12 containing 5% FBS, ITS (Sigma), and TGF-β1 (40 ng/ml) was added, and the cells were allowed to maintain the degree of differentiation thereof; the effects of addition of asporin (20 μg/ml) on the cell morphology and extracellular proteoglycan accumulation were examined.

[1] = test system: normal human articular chondrocytes of knee joint (NHAC); assay: Purified recombinant mouse asporin on TGF-β-stimulated gene expression in NHAC; assay type: cell-based
Method: NHAC purchased from Cambrex Company was cultured in the growth medium attached to the kit (chondrocyte growth medium, CGM) in a 10-cm petri dish, after which the cells were scraped with 0.05% Trypsin/EDTA, and inoculated to a 12-well plate at 10^5 cells/well; on the following day, the medium was exchanged with DMEM/F12+0.2% FBS; 5 hours later, asporin was added. After the cells were further cultured for 12 hours, TGF-β1 (40 ng/ml) was added; from the cells cultured for 48 hours, total RNA preparation, cDNA synthesis, and real-time PCR were performed according to the methods described in Example 12.
Using a cDNA prepared by the method described in Example 35, the expression of the asporin and TGF-β1 genes was examined by real-time PCR. […] From this, it was shown that asporin negatively regulated the expression of both the asporin and TGF-β1 genes in the presence of TGF-β1.

ATDC5 cells = assay: bFGF-stimulated BrdU uptake in ATDC5 cells; assay type: cell-based, mouse; conditions: serum-free DMEM/F12, 20 hours
Method: When ATDC5 cells inoculated in the same manner as Example 40 became subconfluent, the cells were twice washed with serum-free DMEM/F12, serum-free DMEM/F12 was added at 1 ml/well, and the cells were cultured for 24 to 48 hours. Asporin and bFGF were added thereto, and the cells were further cultured for 20 hours, after which BrdU uptake assay was performed using Cell Proliferation ELISA, BrdU (Roche) by the protocol modified for 12-well plate assay as described below. Specifically, BrdU was added to the cells to obtain a final concentration of 1 μM, and the cells were cultured at 37° C. for 4 hours, after which the culture broth was removed by suction, and a fixative solution (FixDenat) was added at 1 ml/well, after which the plate was allowed to stand at room temperature for 30 minutes. The fixative solution was removed by suction, BrdU antibody-HRP (×1000) was added at 0.5 ml/well, and the plate was allowed to stand at room temperature for 1 hour, washed with TBST four times, a substrate solution was added at 0.3 ml/well to proceed the reaction at room temperature for 30 minutes until sufficient color development occurred. 1 M phosphoric acid was added at 0.3 ml/well to step the reaction, transferred to a 96-well plate, and OD415 was measured using a plate reader.

Sequence of TGF-β1 (P01137 279-390 limits assumed, species assumed): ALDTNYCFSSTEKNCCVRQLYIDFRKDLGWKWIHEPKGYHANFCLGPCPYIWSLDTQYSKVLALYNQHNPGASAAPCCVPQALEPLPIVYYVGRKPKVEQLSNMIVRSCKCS

B1: purified mouse asporin: recombinant mouse asporin expressed in Escherichia coli, refolded from insoluble fraction and purified by gel filtration (protein)
chain: DMEDTDDDDNDDDDNSLFPTKEPVNPFFPFDLFPTCPFGCQCYSRVVHCSDLGLTSVPNNIPFDTRMVDLQNNKIKEIKENDFKGLTSLYALILNNNKLTKIHPKTFLTTKKLRRLYLSHNQLSEIPLNLPKSLAELRIHDNKVKKIQKDTFKGMNALHVLEMSANPLENNGIEPGAFEGVTVFHIRIAEAKLTSIPKGLPPTLLELHLDFNKISTVELEDLKRYRELQRLGLGNNRITDIENGTFANIPRVREIHLEHNKLKKIPSGLQELKYLQIIFLHYNSIAKVGVNDFCPTVPKMKKSLYSAISLFNNPMKYWEIQPATFRCVLGRMSVQLGNVGK
modifications: left off: small tags and cut ends
TGF-β1
  binding to TGF-β1 (pull-down): bound to TGF-β1 in vitro
NHAC
  Safranine-O stainability (extracellular proteoglycan): decreased
  cell morphology: fibroblast-like morphology
[1]; NHAC, cDNA of Example 35
  TGF-β1-stimulated increases in expression of the asporin and TGF-β1 genes: both suppressed
[1]; TGF-β1 40 ng/ml, 48 hours
  TGF-β1-stimulated expression of the type II collagen and aggrecan genes: suppressed the TGF-β1-stimulated expression of the type II collagen and aggrecan genes in NHAC concentration-dependently
ATDC5 cells
  BrdU uptake in the absence of bFGF: did not change BrdU uptake
  BrdU uptake in the presence of bFGF: further enhance the increase in BrdU uptake
